Data set [1] deals with Taxol-stabilized microtubules, digoxigenin- and HyLite-647-labeled, P02550;P02554. Briefly: single-molecule imaging of MCAK-GFP on microtubules. Particulars: 32 mM K-PIPES, parent: 6.14e-6.
Data set [2] concerns the molecule itself. Briefly: cross-linking; BS3 on MCAK alone: 10 µg MCAK with 20 µg BS3 in 10 mM HEPES pH 7, 200 mM potassium acetate pH 7.6, on ice 1 h; SDS-PAGE, band cut out, mass spectrometry.
For data set [3], the target named is Taxol-stabilized microtubules, digoxigenin- and HyLite-647-labeled (UniProt P02550 1-451; P02554 1-445, 8% of the tubulin digoxigenin-labeled, 3.5% labeled with HyLite-647; chain and residues not stated | 8% of the tubulin digoxigenin-labeled, 3.5% labeled with HyLite-647; chain and residues not stated). Briefly: single-molecule TIRF microscopy (residence times); microtubules held on the coverslip by anti-DIG antibody; MCAK at 5-100 pM in MRB80 (80 mM K-PIPES pH 6.9, 1 mM EGTA, 4 mM MgCl2) with 1 mM ATP, κ-casein, 40 µM taxol; 23°C; off-rate = 1/τ of a single exponential fit. Conditions: both partners purified.
Chain of Taxol-stabilized microtubules, digoxigenin- and HyLite-647-labeled (P02550 whole entry, chain 1 of 2): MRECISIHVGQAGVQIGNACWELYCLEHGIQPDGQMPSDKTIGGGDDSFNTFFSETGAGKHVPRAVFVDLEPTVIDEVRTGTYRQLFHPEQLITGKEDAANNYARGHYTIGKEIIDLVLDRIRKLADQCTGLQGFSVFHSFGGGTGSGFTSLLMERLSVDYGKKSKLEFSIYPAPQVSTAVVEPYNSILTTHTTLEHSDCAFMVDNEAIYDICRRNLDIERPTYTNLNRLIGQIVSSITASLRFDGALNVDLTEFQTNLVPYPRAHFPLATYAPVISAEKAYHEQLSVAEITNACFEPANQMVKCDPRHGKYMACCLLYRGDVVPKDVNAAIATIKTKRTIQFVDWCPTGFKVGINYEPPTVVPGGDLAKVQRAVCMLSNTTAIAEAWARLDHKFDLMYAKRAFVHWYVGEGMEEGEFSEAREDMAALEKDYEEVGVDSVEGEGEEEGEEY
Chain of Taxol-stabilized microtubules, digoxigenin- and HyLite-647-labeled (P02554 whole entry, chain 2 of 2): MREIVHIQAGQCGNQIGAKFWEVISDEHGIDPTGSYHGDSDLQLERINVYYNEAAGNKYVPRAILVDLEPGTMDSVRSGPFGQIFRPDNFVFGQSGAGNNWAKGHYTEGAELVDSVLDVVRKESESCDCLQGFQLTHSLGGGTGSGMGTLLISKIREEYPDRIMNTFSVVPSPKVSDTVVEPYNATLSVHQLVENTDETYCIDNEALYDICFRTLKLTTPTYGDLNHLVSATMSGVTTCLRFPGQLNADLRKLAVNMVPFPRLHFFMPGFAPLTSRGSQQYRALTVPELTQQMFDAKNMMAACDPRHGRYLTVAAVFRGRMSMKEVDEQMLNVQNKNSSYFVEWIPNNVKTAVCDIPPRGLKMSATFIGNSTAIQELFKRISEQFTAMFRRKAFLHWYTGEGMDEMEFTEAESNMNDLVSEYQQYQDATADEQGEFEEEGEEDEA

Changes are numbered by the printed parent chain.

Turning to “MCAK-GFP (from UniProt Q99661) S95E; S109E; S111E; S115E; S166E; S192E”, in data set [1] (n = 439), the kon was 11000 M⁻¹ s⁻¹.
For “MCAK-GFP (from UniProt Q99661) S166E; S192E”, in data set [1] (n = 280), the association rate constant (kon) came to 6720 M⁻¹ s⁻¹.

B1: full-length human MCAK (natural protein, UniProt Q99661 1-725, looked up)
chain: MAMDSSLQARLFPGLAIKIQRSNGLIHSANVRTVNLEKSCVSVEWAEGGATKGKEIDFDDVAAINPELLQLLPLHPKDNLPLQENVTIQKQKRRSVNSKIPAPKESLRSRSTRMSTVSELRITAQENDMEVELPAAANSRKQFSVPPAPTRPSCPAVAEIPLRMVSEEMEEQVHSIRGSSSANPVNSVRRKSCLVKEVEKMKNKREEKKAQNSEMRMKRAQEYDSSFPNWEFARMIKEFRATLECHPLTMTDPIEEHRICVCVRKRPLNKQELAKKEIDVISIPSKCLLLVHEPKLKVDLTKYLENQAFCFDFAFDETASNEVVYRFTARPLVQTIFEGGKATCFAYGQTGSGKTHTMGGDLSGKAQNASKGIYAMASRDVFLLKNQPCYRKLGLEVYVTFFEIYNGKLFDLLNKKAKLRVLEDGKQQVQVVGLQEHLVNSADDVIKMIDMGSACRTSGQTFANSNSSRSHACFQIILRAKGRMHGKFSLVDLAGNERGADTSSADRQTRMEGAEINKSLLALKECIRALGQNKAHTPFRESKLTQVLRDSFIGENSRTCMIATISPGISSCEYTLNTLRYADRVKELSPHSGPSGEQLIQMETEEMEACSNGALIPGNLSKEEEELSSQMSSFNEAMTQIRELEEKAMEELKEIIQQGPDWLELSEMTEQPDYDLETFVNKAESALAQQAKHFSALRDVIKALRLAMQLEEQASRQISSKKRPQ
notes: MCAK (Kif2C), human, full length; also called Kif2C; kinesin-13; source: Sf9 insect cells (pFastBac), purified
In the case of B1, the “stoichiometry N” value in data set [2] was 2.

B2: MCAKS2E-GFP (natural protein, human, UniProt Q99661 1-725, looked up)
chain: B1 chain with S166E, S192E
notes: MCAK (Kif2C), human, full length, phosphomimetic in the neck region (Ser192 and Ser166 replaced by glutamate); Site-directed mutagenesis of MCAK-GFP; source: Sf9 insect cells (pFastBac), purified; not shown: GFP, C-terminal, kept
Molecule B2 returned a koff in data set [3] of 3.2 s⁻¹.

B3: Aurora B-phosphorylated MCAK-GFP (natural protein, human, UniProt Q99661 1-725, looked up)
chain: B1 chain
modifications: phosphorylated in vitro with Aurora B kinase; the sites modified in this sample are not stated
notes: MCAK (Kif2C), human, full length; Phosphorylation protocol is in Welburn et al., 2010; source: Sf9 insect cells (pFastBac), purified, phosphorylated in vitro with Aurora B kinase; not shown: GFP, C-terminal, kept
In data set [3], B3 yielded an off-rate (koff) of 23.4 s⁻¹.

B4: MCAK-GFP (natural protein, human, UniProt Q99661 1-725, looked up)
chain: B1 chain
notes: MCAK (Kif2C), human, full length; also called GFP-tagged MCAK; source: Sf9 insect cells (pFastBac), purified; not shown: GFP, C-terminal, kept
With B4, the dissociation rate constant (koff) in data set [3] stood at 1.6 s⁻¹.

B5: MCAKS6E-GFP (natural protein, human, UniProt Q99661 1-725, looked up)
chain: B1 chain with S95E, S109E, S111E, S115E, S166E, S192E
notes: MCAK (Kif2C), human, full length, Aurora B phosphomimetic for six serines in the N-terminus and neck; Site-directed mutagenesis of MCAK-GFP; source: Sf9 insect cells (pFastBac), purified; not shown: GFP, C-terminal, kept
For B5, in data set [3], the dissociation rate constant (koff) came to 25.8 s⁻¹.

By kon is commonly meant the second-order rate constant of association. The stoichiometry N is the number of molecules, sites or subunits per partner or assembly. The term koff denotes a measure of how fast the partners let go of each other.

For the origin of these results see PMC6398471, “The depolymerase activity of MCAK shows a graded response to Aurora B kinase phosphorylation through allosteric regulation” (Journal of Cell Science, 2019).
